Measured values from patent publication US9404087B2, “Insulin producing cells derived from pluripotent stem cells” (Kadimastem Ltd., priority 2010, dated 2016).

B1: Noggin: Noggin (Preprotech) added at 100 ng/ml in step 5 (protein, UniProt Q13253 28-232, looked up)
Noggin: QHYLHIRPAPSDNLPLVDLIEHPDPIFDPKEKDLNETLLRSLLGGHYDPGFMATSPPEDRPGGGGGAAGGAEDLAELDQLLRQRPSGAMPSEIKGLEFSEGLAQGKKQRLSKKLRRKLQMWLWSQTFCPVLYAWNDLGSRFWPRYVKVGSCFSKRSCSVPEGMVCKPSKSVHLTVLRWRCQRRGGQRCGWIPIQYPIISECKCSC
B2: Activin A: recombinant human Activin A (Preprotech), 100 ng/ml (protein, UniProt P08476 311-426, looked up)
Inhibin beta A chain: GLECDGKVNICCKKQFFVSFKDIGWNDWIIAPSGYHANYCEGECPSHIAGTSGSSLSFHSTVINHYRMRGHSPFANLKSCCVPTKLRPMSMLYYDDGQNIIKKDIQNMIVEECGCS
modifications: Inhibin beta A chain

Tests used:
Type in all cases: cell-based
human insulin C-peptide = assay: Content of human insulin C-peptide by ELISA in cell fractions
Experimental: On day 20, the medium used in step III of Example 2 was modified to adjust the glucose concentration to 5.5 mM (referred to herein as DM7). For isolation of EpCAM^+ cells by magnetic cell sorting (MACS technology, Miltenyi Biotec), a 10 cm-diameter plate was washed with PBS^−/− (no Ca^++, no Mg^++). Cells were then dissociated by treatment with Accutase (Stempro, 2.5 ml/10 cm plate), for 10 minutes at 37° C., and pipetting up and down. The cells were collected in DM7 and an aliquot counted in a NucleoCounter (New Brunswick). Cells were centrifuged at 1,500 rpm (350×g) for 5 minutes and re-suspended in MACS buffer (PBS^−/− with 0.5% BSA, 2 mM EDTA), using 0.3 ml for 50 million cells. Magnetic beads conjugated to anti-EpCAM antibodies (Miltenyi Biotec—CD326 pluripotent stem cells microbeads) were added (0.1 ml beads for 50 million cells). After 30 minutes at 4° C., the cells were washed once in 50 ml of MACS buffer, centrifuged, and finally re-suspended in 0.5 ml MACS buffer (for a maximum of 10^8 cells). […]
Aliquots of the Presort culture and of EpCAM-MACS-separated fractions (from step 7), as well as of re-aggregated clusters (step 8) were analyzed. The number of cells was counted, using the Nucleocounter. After centrifugation at 350×g for 5 minutes, cell pellets were dissolved in M-PER (Mammalian protein extraction reagent, Pierce), typically using 0.1 ml M-PER for 2 million cells, and content of human insulin C-peptide was measured with an ELISA kit (Mercodia, Upsalh, Sweden, ultrasensitive c-peptide kit (minimal detection 5 pM) or Mercodia c-peptide ELISA (minimal detection 90 pM). Samples in M-PER were diluted 3 fold, or more in the kit buffer, and 20 μl of the ⅓ dilution were assayed. Results were expressed per mg total protein (as measured by Bradford assay) and per million cells (counted in a NucleoCounter). […] Human insulin mRNA was quantitated by RT-qPCR (Taq-Man, Applied Biosystems, Step One) using the TATA binding protein (TBP) gene as reference. […]

Human insulin mRNA = Human insulin mRNA by RT-qPCR with TBP as reference
Experimental: Aliquots of the Presort culture and of EpCAM-MACS-separated fractions (from step 7), as well as of re-aggregated clusters (step 8) were analyzed. The number of cells was counted, using the Nucleocounter. After centrifugation at 350×g for 5 minutes, cell pellets were dissolved in M-PER (Mammalian protein extraction reagent, Pierce), typically using 0.1 ml M-PER for 2 million cells, and content of human insulin C-peptide was measured with an ELISA kit (Mercodia, Upsalh, Sweden, ultrasensitive c-peptide kit (minimal detection 5 pM) or Mercodia c-peptide ELISA (minimal detection 90 pM). Samples in M-PER were diluted 3 fold, or more in the kit buffer, and 20 μl of the ⅓ dilution were assayed. Results were expressed per mg total protein (as measured by Bradford assay) and per million cells (counted in a NucleoCounter). Other cell pellets were suspended in 0.7 ml buffer RLT (RNAeasy, Qiagen) per million cells, for RNA extraction. Human insulin mRNA was quantitated by RT-qPCR (Taq-Man, Applied Biosystems, Step One) using the TATA binding protein (TBP) gene as reference. In the same way, proteins and RNA were extracted from entire plates after scraping the cells with a rubber policeman.
Differentiation of hES cells towards a pancreatic lineage: The hES cell cultures were differentiated as detailed in Example 5 and FIG. 15, steps 1-8, and RNA extracted at different steps was subjected to RT-qPCR.
Human ES cells were differentiated according to the scheme illustrated in FIG. 22. Two modifications were made in the procedure detailed in Example 5. Thus, in step 2 and 3, the fetal calf serum was replaced by serum replacement (KOSR, Invitrogen), at the same concentrations (i.e. 2% in step 2, 0.2% in step 3). In addition, in step 5, Noggin (Preprotech) was added at 100 ng/ml. The EpCAM-MACS fractionation was performed as in Example 5.

human ES cells = assay: Indirect immunofluorescence of definitive endoderm markers after Activin A treatment
Experimental: On day one, three wells of human ES cell colonies (grown on Corning 6×well plate for 4 days) detached by collagenase were collected into a 15 ml tube, and colonies washed twice by low speed centrifugation in differentiation medium A (DMEM/F12, 2% KOSR, 2 mM glutmine, 1×NEAA, 100 μM βMEtOH, 1 mM NaPyruvate and penicillin and streptomycin (PS)).
After all the hES clusters had been collected and washed, the clusters were suspended in 1.5 ml/well of differentiation medium A1, (i.e. differentiation medium A including 100 ng/ml recombinant human Activin A (Preprotech) and 25 ng/ml recombinant Wnt 3 (R&D), 2% knock-out serum replacement and 2 mg/ml bovine serum albumin (BSA, cell culture tested SIGMA)). 450-500 colonies/well were seeded in Costar 6×well plates which had been coated with 0.1% porcine gelatin (Sigma) 1 day before. Alternatively, about 3000 colonies were seeded on 10 cm diameter plates. Plates were left in the incubator (37° C., 5% CO2) for 2 days without medium change.
On day 3, the medium was changed to differentiation medium A2 (DMEM/F12, 2% KOSR, 2 mM glut, 1×NEAA, 100 μM βMEtOH, 1 mM NaPyr and 2% Fetal Calf Serum (FCS)) containing 100 ng/ml Activin A and 2 mg/ml BSA. At this stage, clusters still floated and many single cells were visible. The plates were tilted so that clusters fell to the bottom edge of the well and the old medium was removed leaving clusters in 300 μl medium that is completed with 1.2 ml of medium A2. The collected culture medium that contained a few clusters was centrifuged at 900 rpm for 5 minutes. The pellet was re-suspended in 1.5 ml medium A2 and added to one of the wells. On day 4, most clusters adhered to the plate and the culture medium was changed similarly as on day 3, to differentiation medium A3 (DMEM/F12, 2 mM glutamine, 1×NEAA, 100 μM βMEtOH, 1 mM NaPyr but with 0.2% FCS) that contained 100 ng/ml Activin A and 2 mg/ml BSA. Cells were left in the medium A3 for 2 days.
Cells were fixed (4% paraformaldehyde in Ca^2+ and Mg^2+ free PBS for 20 minutes), washed ×3 with PBS and blocked with 10% horse serum in PBS. The reaction with the primary antibody (Ab) was performed in 10% horse serum with or without 1% BSA. Secondary antibodies (Either donkey anti mouse; donkey anti rabbit; donkey or rabbit anti-goat that are conjugated with fluorescent tags, Alexa 488 or Alexa 566 (Molecular Probes/Invitrogen) or with Cy3/donkey anti rabbit DyLight 488 (Jackson laboratories). Pictures were taken with a CCD camera and processed with an imaging program. Mouse monoclonal anti Sox17 Ab (R&D) 10 μg/ml was used with 0.1% Triton X100. Rabbit polyclonal anti FoxA2 (ab40874) (Abcam) was used at the dilution of 1/1000 with 0.1% Triton X100.

[1] = five days Activin A conditioning, positive nuclei relative to DAPI nuclei (FIG. 1)

Molecule | Insulin C-peptide (human insulin C-peptide; Table 4 Expt 1, D 19 (EpCAM+)) [ng/mg protein] | Insulin C-peptide (human insulin C-peptide; Table 4 Expt 1, D 19 (Presort)) [ng/mg protein] | Insulin C-peptide (human insulin C-peptide; Table 4 Expt 1, D 23 (EpCAM+)) [ng/mg protein] | Ratio Insulin mRNA over TBP mRNA (Human insulin mRNA; Table 5 Expt 1, D 19 (EpCAM+)) | Ratio Insulin mRNA over TBP mRNA (Human insulin mRNA; Table 5 Expt 1, D 19 (Presort)) | Ratio Insulin mRNA over TBP mRNA (Human insulin mRNA; Table 5 Expt 1, D 23 (EpCAM+)) | cells anti Oct4 positive (human ES cells; end of 5 days of Activin A treatment) [%] | cells expressing Sox17 and/or FoxA2 (human ES cells; end of 5 days of Activin A treatment, 100 ng/ml) | yield of cells expressing FoxA2 (human ES cells; [1]) [%] | yield of cells expressing Sox17 (human ES cells; [1]) [%]
B1 | 8.15 | 2.9 | 17.5 | 0.7 | 0.6 | 0.7 |  |  |  | 
B2 |  |  |  |  |  |  | 5 | about 75% | 89 | 98
